According to PMC12016517, “Transcriptional regulation of two redundant 3-bromo-4-hydroxybenzoate catabolic operons via two different regulatory modes in Pigmentiphaga kullae strain H8” (Applied and Environmental Microbiology, 2025):
Where “and” joins values, the source holds several entries; their conditions need not be identical. Equal entries are not always repeated.

Columns and labels:
[1] = tested on: T1, BhbR1 (LysR-type regulator) (Pigmentiphaga kullae H8), ORF:3710a82b; assay: EMSA; conditions: EMSA BhbR1: 100 mM Tris-HCl pH 8.0, 50 mM KCl, 5% glycerol, 1 mM DTT, BhbR2: 50 mM Tris-HCl pH 8.0, 30 mM KCl, 1 mM EDTA, 5 mM DTT, 25 C, 30 min. …
T1 sequence: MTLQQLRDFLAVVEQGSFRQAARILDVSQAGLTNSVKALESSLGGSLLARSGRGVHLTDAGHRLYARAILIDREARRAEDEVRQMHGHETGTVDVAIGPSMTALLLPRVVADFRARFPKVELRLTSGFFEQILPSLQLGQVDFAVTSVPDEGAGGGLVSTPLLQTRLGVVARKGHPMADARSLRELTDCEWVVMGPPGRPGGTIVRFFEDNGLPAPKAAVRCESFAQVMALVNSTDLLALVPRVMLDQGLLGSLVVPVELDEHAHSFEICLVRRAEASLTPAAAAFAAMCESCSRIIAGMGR

[2] = target: MarR-family transcription factor BhbR2 (Pigmentiphaga kullae strain H8); assay: SEC; gel filtration on Superose 6 10/300 GL, 25°C, PBS pH 7.8, 0.4 mL/min, calibrated with protein molecular weight markers; oligomeric state of the purified regulator
[3] = tested on: T2, BhbR2 (MarR-family regulator) (Pigmentiphaga kullae H8), ORF:e62c0bd9; assay: EMSA; conditions: EMSA BhbR1: 100 mM Tris-HCl pH 8.0, 50 mM KCl, 5% glycerol, 1 mM DTT, BhbR2: 50 mM Tris-HCl pH 8.0, 30 mM KCl, 1 mM EDTA, 5 mM DTT, 25 C, 30 min. …
T2 sequence: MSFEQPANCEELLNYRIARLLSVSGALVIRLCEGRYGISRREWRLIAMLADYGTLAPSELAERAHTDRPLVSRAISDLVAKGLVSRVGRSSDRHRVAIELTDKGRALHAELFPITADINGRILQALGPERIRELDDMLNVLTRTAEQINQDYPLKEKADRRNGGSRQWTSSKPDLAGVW

[4] = tested on: T1, BhbR1 (LysR-type regulator) (Pigmentiphaga kullae H8), ORF:3710a82b; assay: SPR; conditions: EMSA BhbR1: 100 mM Tris-HCl pH 8.0, 50 mM KCl, 5% glycerol, 1 mM DTT, BhbR2: 50 mM Tris-HCl pH 8.0, 30 mM KCl, 1 mM EDTA, 5 mM DTT, 25 C, 30 min. …
[5] = tested on: BhbR1 (LysR-type regulator) (Pigmentiphaga kullae H8); assay: SPR; conditions: EMSA BhbR1: 100 mM Tris-HCl pH 8.0, 50 mM KCl, 5% glycerol, 1 mM DTT, BhbR2: 50 mM Tris-HCl pH 8.0, 30 mM KCl, 1 mM EDTA, 5 mM DTT, 25 C, 30 min. …
[6] = tested on: T2, BhbR2 (MarR-family regulator) (Pigmentiphaga kullae H8), ORF:e62c0bd9; assay: SPR; conditions: EMSA BhbR1: 100 mM Tris-HCl pH 8.0, 50 mM KCl, 5% glycerol, 1 mM DTT, BhbR2: 50 mM Tris-HCl pH 8.0, 30 mM KCl, 1 mM EDTA, 5 mM DTT, 25 C, 30 min. …
[7] = tested on: BhbR2 (MarR-family regulator) (Pigmentiphaga kullae H8); assay: SPR; conditions: EMSA BhbR1: 100 mM Tris-HCl pH 8.0, 50 mM KCl, 5% glycerol, 1 mM DTT, BhbR2: 50 mM Tris-HCl pH 8.0, 30 mM KCl, 1 mM EDTA, 5 mM DTT, 25 C, 30 min. …
[8] = target: T3, BhbR1 (LysR-type transcriptional regulator); assay: SPR (Biacore T200, protein immobilized on CM7 chip, steady-state affinity); format: binding, Pigmentiphaga kullae
T3 construct: C-terminal His-tagged BhbR1 (302 amino acids), expressed in E. coli BL21(DE3)

[9] = target: T4, BhbR2 (MarR-family transcription factor); assay: as above; format: binding, Pigmentiphaga kullae
T4 construct: C-terminal His-tagged BhbR2 (179 amino acids), expressed in E. coli BL21(DE3)

[10] = target: LysR-type transcriptional regulator BhbR1 (Pigmentiphaga kullae strain H8); assay: SEC; gel filtration on Superose 6 10/300 GL, 25°C, PBS pH 7.8, 0.4 mL/min, calibrated with protein molecular weight markers; oligomeric state of the purified regulator

Compound: GAACTCGAGGTGCTGTCGATTTGTGCCATGTTGATCTCCTTCATGGACGCCGGCGGCTTCCACGCCTGCGTCCGGGGACGAGAAACTGCGGAAGCGTCGGGATACCAGCAAGGAACGTGCCCCGTGATCCGCGGTTGCTGATAGCAAACCGTTATCGAGATAAGGAAAAACTGGCTTTTCGCTGTGCGCGTGGATCGTGATACTGCCGCCGGGCCTGGATGAACGGGCCCGGCAACGGAACTACGACCCACGACTAGTTTC (double strand) [PbR1 (Pphbh1 promoter probe, EMSA)]
- binding [1]: binds

Compound: MarR-family transcription factor BhbR2 (natural protein)
- stoichiometry N [2]: 2

Compound: TAATCCGACATCGGCCGCTCCAATAGTGAGAGGTCTTGCGATCCCCCCCTTTCCCCCGTAGGGCGTATGCGGTATTAGCTACGCTTTCGCGTAGTTATCCCCCGCTACTGGGCACGTTCCGATGCATTACTCACCCGTTCGCCACTCGCCGC (double strand) [Pb16S]
- binding [3]: no binding
- binding [1]: no binding

Compound: ACCAGCAAGGAACGTGCCCCGTGATCCGCGGTTGCTGATAGCAAACCGTTATCGAGATAAGGAAAAACTGGCTTTTCGCTGTGCGCGTGGATCGTGATACTGCCGCCGGGCCTGGATGAACGGGCCCGGCAACGGAACTACGAC (double strand) [Fphbh1 (Fpbhb1)]
- Kd [4]: 0.7 nM and 1.2 nM

Compound: Fphbh1 (Fpbhb1)
- Kd ([5]; 5 uM 3-Br-4-HB): 1.2 nM
- Kd ([5]; no inducer): 0.7 nM

Compound: GGGCAATGCTCCTTGGGTAGAGGGAAAACGACCAGGGCCGCGCCGGCGTATGGCGTTGCGGCTGCTGGGCTTTTTATGGAGAATGACTCTAGCTTTCATGTCCTTGATTGTTCTAATCAACCGCCGTCGGCACAGGAGCAGCCATGTCCTTCG (double strand) [FpcaA2]
- Kd [6]: 397 nM and 259 nM

Compound: FpcaA2
- Kd ([7]; 5 uM 3-Br-4-HB): 259 nM
- Kd ([7]; no inducer): 397 nM

Compound: GAACTCGAGTGATGCCGTAGCGGCCTTCGCACAACCGGATCACCAGCGCCCCGCTGACCGACAGCAGCCTGGCTATCCGGTAGTTCAGGAGTTCCTCGCAATTTGCGGGCTGCTCGAAGGACATGGCTGCTCCTGTGCCGACGGCGGTTGATTAGAACAATCAAGGACATGAAAGCTAGAGTCATTCTCCATAAAAAGCCCAGCAGCCGCAACGCCATACGCCGGCGCGGCCCTGGTCGTTTTCCCTCTACCCAAGGAGCATTGCCCACTAGTTTC (double strand) [PbR2 (PpcaA2 promoter probe, EMSA)]
- binding [3]: binds

Compound: O=C(O)c1ccc(O)c(Br)c1 [3-Br-4-HB, 3-bromo-4-hydroxybenzoate]
- Kd [8]: 2200 nM
- Kd [9]: 2100 nM

Compound: LysR-type transcriptional regulator BhbR1 (natural protein)
- stoichiometry N [10]: 4
